In patent US20260207707A1 (UNIVERSITY OF CHICAGO, published 2026):

T1: eosinophil cationic protein (ECP), P12724
T1 chain: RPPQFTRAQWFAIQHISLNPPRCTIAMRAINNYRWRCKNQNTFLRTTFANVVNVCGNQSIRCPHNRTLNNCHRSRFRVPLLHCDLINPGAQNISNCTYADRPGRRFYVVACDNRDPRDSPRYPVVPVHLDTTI

T2: recombinant human N-terminal CD95 (aa 1-173)
T2 chain: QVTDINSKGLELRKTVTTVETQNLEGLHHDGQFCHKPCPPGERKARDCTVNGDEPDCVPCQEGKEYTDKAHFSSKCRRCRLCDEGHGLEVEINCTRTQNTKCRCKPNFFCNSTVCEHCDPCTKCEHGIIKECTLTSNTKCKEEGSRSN

T3: recombinant human C-terminal CD95 (aa 212-335)
T3 chain: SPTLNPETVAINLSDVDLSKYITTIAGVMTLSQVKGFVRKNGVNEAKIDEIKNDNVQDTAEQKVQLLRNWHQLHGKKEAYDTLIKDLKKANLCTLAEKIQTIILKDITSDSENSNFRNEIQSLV

T4: neutrophil elastase (ELANE) (human, UniProt P08246 30-247, limits assumed)
T4 construct: Purified ELANE; In the co-immunoprecipitation it is the native protein in human PMN media; also called human ELANE
T4 sequence (looked up): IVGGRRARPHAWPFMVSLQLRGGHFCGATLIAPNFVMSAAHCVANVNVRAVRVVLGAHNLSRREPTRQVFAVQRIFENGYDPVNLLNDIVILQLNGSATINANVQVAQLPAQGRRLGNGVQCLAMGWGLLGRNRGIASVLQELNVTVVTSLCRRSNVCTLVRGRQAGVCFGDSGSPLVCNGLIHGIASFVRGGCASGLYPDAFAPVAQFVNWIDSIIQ

B1: neutrophil elastase (ELANE) (protein)
chain: T4 sequence (looked up)
B2: eosinophil cationic protein (ECP) (other, human, UniProt P12724 28-160, looked up)
chain: T1 chain
notes: Identified by proteomics in media conditioned by human PMNs

Experiments:
[1] = biological target: recombinant peptide corresponding to aa 317-335 of human CD95
[2] = biological target: recombinant peptide corresponding to aa 214-231 of human CD95
[3] = biological target: T1, eosinophil cationic protein (ECP), …
[4] = biological target: T2, recombinant human N-terminal CD95 (aa …)
[5] = biological target: T3, recombinant human C-terminal CD95 (aa …)
[6] = biological target: T4, neutrophil elastase (ELANE); assay: enzyme kinetics: ELANE (10 nM) chromogenic substrate activity with ECP 0-180 nM, curve fitting
Experimental: Catalytic activity was measured using the chromogenic substrate N-Methoxysuccinyl-Ala-Ala-Pro-Val p-nitroanilide (Sigma, 100 μg/mL) according to manufacturer's protocol. Absorbance was measured at 405 nm using an accuSkan GO UV/Vis microplate spectrophotometer (ThermoFisher Scientific). […] Residual PMSF was eliminated with a PD-10 desalting column (GE Healthcare Life).

Binder	cleavage of peptide monitored by mass spectrometry [1]	cleavage of peptide monitored by mass spectrometry [2]	catalytic turnover (kcat) of ELANE [3]	cleavage of recombinant protein (SDS-PAGE, Coomassie blue) [4]	cleavage of recombinant protein (SDS-PAGE, Coomassie blue) [5]	Kd [6] [nM]
B1	studies with synthetic peptides validated these findings	studies with synthetic peptides validated these findings	increases its catalytic turnover (kcat) by ~12-fold	ELANE preferentially cleaved the C-terminal domain	ELANE preferentially cleaved the C-terminal domain	
B2						17
